Counter-ions that a name gives are not always drawn. Ends that are not written are not given here. * marks the point of attachment. Biotin = O=C1N[C@H]2[C@H](CS[C@H]2CCCCC(=O)*)N1
What was measured:
Calreticulin (CRT) [1] = target: T1, Calreticulin (CRT) (Homo sapiens, UniProt P27797); assay: 1D 1H NMR ligand line broadening with CRT; […]-HSQC of ITGA4 peptide shows displacement from CRT; type: binding; parameters: gene CALR; Human CRT, His-tag fusion protein (pET-19b), expressed in E. coli
T1 sequence (P27797 18-417): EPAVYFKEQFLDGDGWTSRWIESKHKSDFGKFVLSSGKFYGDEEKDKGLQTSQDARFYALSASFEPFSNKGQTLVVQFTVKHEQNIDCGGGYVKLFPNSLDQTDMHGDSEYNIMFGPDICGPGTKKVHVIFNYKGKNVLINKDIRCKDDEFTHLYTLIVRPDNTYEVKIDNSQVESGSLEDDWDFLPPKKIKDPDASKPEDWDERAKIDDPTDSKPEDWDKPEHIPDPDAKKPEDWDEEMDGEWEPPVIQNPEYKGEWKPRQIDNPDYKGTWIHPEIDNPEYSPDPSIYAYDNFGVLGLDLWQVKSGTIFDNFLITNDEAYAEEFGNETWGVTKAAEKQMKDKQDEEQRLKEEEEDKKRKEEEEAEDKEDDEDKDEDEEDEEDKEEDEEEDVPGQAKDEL

Calreticulin (CRT) [2] = target: T1, Calreticulin (CRT); assay: cell-free plate assay of biotinylated ITGA peptide (KAGFFKR) binding to purified CRT; supported by GST-CRT pull-down; parameters: gene CALR
[3] = target: T2, CRT (>90% pure) used for surface plasmon resonance (human, UniProt P27797 18-417); assay: SPR
T2 chain: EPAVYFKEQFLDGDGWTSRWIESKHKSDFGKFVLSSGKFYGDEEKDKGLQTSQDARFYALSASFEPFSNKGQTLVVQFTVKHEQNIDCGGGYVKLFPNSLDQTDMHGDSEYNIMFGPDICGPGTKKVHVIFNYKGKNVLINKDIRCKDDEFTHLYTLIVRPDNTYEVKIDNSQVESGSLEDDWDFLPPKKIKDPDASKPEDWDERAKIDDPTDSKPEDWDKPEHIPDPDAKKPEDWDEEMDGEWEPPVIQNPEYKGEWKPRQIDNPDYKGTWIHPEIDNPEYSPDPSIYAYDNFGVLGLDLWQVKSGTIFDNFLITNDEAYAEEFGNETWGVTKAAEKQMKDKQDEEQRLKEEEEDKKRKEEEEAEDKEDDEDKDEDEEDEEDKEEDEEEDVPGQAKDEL

[4] = target: T2, CRT (>90% pure) used for surface …; assay: SPR
[5] = target: T3, Human CRT protein, His-tag fusion protein (pET-19b) (human, UniProt P27797 18-417); assay: NMR titration; two-dimensional 15N-HSQC, 4 μM 15N-ITGA4 with 4 μM CRT, 20 mM PB pH 5.5, 10% D2O, 303 K, 700 MHz; conditions: both partners purified
T3 construct: calreticulin (CRT), human; Surmise: pET-19b adds an N-terminal His tag; also called calreticulin; source: E. coli BL21, purified (Ni-NTA agarose, Superdex 75), >90% pure
T3 sequence (looked up): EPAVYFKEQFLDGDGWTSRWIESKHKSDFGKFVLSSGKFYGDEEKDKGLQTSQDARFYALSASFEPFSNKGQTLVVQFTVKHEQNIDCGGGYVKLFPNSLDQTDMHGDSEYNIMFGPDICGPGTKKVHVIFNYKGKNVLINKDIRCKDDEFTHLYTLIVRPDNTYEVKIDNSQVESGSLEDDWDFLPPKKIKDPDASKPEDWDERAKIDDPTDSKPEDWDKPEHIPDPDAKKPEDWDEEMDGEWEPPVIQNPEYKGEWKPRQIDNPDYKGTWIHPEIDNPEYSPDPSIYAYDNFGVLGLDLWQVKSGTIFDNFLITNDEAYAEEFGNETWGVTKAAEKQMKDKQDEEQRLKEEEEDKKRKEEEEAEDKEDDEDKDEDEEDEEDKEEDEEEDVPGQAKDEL

CC1(C)CC(c2ccccc2N2CCN(CC3CC3)CC2)CC(C)(C)C1 [ER-339093-13, 1-(cyclopropylmethyl)-4-[2-(3,3,5,5-tetramethylcyclohexyl)phenyl] piperazine methanesulfonate]
1D 1H NMR ligand line broadening with CRT; 15N-HSQC of ITGA4 peptide shows displ (Calreticulin (CRT) [1]): notable line broadening of the ER-339093-13 signal was observed upon the addition of CRT

CCCN1CCN(c2ccccc2C2CC(C)(C)CC(C)(C)C2)CC1 [ER-464195-01, 1-propyl-4-[2-(3,3,5,5-tetramethylcyclohexyl)phenyl] piperazine hydrochloride]
IC50 (Calreticulin (CRT) [2]): 170 nM

Biotin-KAGFFKRQYKSILQEENRRDSWSYINSKSNDD [N-terminally biotinylated intracellular domain of the ITGA4 peptide]
koff [3]: 0.00388 s⁻¹ | Kd [4]: 250 nM

B1: uniformly 15N-labeled intracellular domain of ITGA4 (domain or fragment)
chain: KAGFFKRQYKSILQEENRRDSWSYINSKSNDD
modifications: also: uniformly 15N-labeled
notes: intracellular domain of integrin α4 (ITGA4), cloned BamHI-EcoRI into pGEX-2T; Surmise: thrombin cleavage of a pGEX-2T fusion leaves a few residues of the vector at the N-terminus; also called 15N-ITGA4; ITGA4 peptide
binding result [5]: binds

Reference: paper PMC5958137, “Calreticulin and integrin alpha dissociation induces anti-inflammatory programming in animal models of inflammatory bowel disease” (Nature Communications, 2018)
